Changes are numbered by the printed parent chain. Where “and” joins values, the source holds several entries; their conditions need not be identical. Equal values may be shown once.
Assays:
[1] = molecular target: bt-MalE, hybrid between a peptide that can be biotinylated in vivo by E. coli and MalE (Escherichia coli)
[2] = molecular target: T1, maltose binding protein MalE from Escherichia coli (Escherichia coli, UniProt P0AEX9 27-396 = MBP); assay: competition Biacore in solution, buffer L2; buffer L2
[3] = molecular target: T1, maltose binding protein MalE from …; assay: competition Biacore in solution, buffer M2; buffer M2
bovine serum albumin = molecular target: T2, bovine serum albumin (bovine, UniProt P02769 25-607); assay: fluorescence titration of 0.3 µM DarpOff7(N45ANBD) by BSA, 25 °C, buffer M1
T2 construct: also called BSA

[4] = molecular target: T1, maltose binding protein MalE from …; assay: ΔG(wt)-ΔG(mut) from Kd by competition Biacore (reference itself)

T2 sequence (P02769 25-607 limits assumed): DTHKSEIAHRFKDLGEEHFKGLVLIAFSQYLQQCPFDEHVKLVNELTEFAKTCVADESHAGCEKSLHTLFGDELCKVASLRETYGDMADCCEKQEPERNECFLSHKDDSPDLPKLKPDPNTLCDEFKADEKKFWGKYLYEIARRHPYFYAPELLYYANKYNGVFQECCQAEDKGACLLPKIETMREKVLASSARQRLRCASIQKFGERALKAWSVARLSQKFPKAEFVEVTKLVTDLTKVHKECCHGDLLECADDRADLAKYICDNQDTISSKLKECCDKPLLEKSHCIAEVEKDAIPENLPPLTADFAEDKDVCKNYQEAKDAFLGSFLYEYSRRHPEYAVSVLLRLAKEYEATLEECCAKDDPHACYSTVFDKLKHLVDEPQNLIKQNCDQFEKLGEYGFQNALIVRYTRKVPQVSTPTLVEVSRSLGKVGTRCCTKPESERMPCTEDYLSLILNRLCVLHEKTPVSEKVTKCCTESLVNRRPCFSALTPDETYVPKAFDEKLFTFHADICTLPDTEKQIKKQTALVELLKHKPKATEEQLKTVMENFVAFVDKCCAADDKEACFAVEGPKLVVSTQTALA

B1: DarpOff7(wt) (designed binder)
chain: MRGSHHHHHHGSDLGRKLLEAARAGQDDEVRILMANGADVNAADNTGTTPLHLAAYSGHLEIVEVLLKHGADVDASDVFGYTPLHLAAYWGHLEIVEVLLKNGADVNAMDSDGMTPLHLAAKWGYLEIVEVLLKHGADVNAQDKFGKTAFDISIDNGNEDLAEILQKLN
B1 was tested, and the koff [1] was 0.0051 s⁻¹ and 0.0062 s⁻¹ and 0.0061 s⁻¹, the kon [1] was 660000 M⁻¹ s⁻¹ and 250000 M⁻¹ s⁻¹ and 550000 M⁻¹ s⁻¹ and the Kd [2] was 11 nM. The Kd [3] was 5.6 nM.

B2: DarpOff7(N45ANBD) (designed binder)
chain: B1 chain with N45C
notes: also called conjugate at position Asn45; Asn45
B2: no binding (tested: 2.4 µM) (bovine serum albumin).

B3: DarpMbp3-16(wt) (designed binder)
chain: MRGSHHHHHHGSDLGKKLLEAAHAGQDDEVRILMANGADVNAMDNFGVTPLHLAAYWGHFEIVEVLLKYGADVNASDATGDTPLHLAAKWGYLGIVEVLLKYGADVNAQDKFGKTAFDISIDNGNEDLAEILQKLN
Work on B3 yielded a ΔΔG [4] of 0 kcal/mol.
